Assay results: US20240254222A1 (Bayer, published 2024)
Numbering of substitutions follows the chain as printed.

T1: human wild-type Sema3A of SEQ ID NO: 600, expressed by HEK293 cells (human, UniProt Q14563 22-771, limits assumed)
T1 sequence: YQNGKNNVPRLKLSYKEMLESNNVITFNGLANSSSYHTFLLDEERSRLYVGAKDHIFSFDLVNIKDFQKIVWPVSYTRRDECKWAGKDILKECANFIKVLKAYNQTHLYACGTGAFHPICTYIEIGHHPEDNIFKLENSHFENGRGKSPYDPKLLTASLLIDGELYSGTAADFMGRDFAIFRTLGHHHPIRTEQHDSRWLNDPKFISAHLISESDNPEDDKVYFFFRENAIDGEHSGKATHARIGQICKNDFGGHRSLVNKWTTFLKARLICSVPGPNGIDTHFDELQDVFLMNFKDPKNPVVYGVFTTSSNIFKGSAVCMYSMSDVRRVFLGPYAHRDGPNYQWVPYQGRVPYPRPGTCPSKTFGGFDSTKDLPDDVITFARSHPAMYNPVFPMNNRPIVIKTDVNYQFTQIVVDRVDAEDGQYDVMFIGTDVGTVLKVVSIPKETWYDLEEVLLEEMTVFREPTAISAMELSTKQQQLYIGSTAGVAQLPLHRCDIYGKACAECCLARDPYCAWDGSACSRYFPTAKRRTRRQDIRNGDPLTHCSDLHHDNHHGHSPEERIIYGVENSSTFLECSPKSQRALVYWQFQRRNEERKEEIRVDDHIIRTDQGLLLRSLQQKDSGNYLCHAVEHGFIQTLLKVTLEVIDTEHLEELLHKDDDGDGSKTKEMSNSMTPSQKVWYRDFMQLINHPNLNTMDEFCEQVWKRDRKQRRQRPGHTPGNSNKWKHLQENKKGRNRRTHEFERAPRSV

T2: Dog Semaphorin3A-Sema Domain, TPP-19121 (dog, UniProt Q63548 21-569 (rat entry), limits assumed)
T2 construct: produced inhouse
T2 chain: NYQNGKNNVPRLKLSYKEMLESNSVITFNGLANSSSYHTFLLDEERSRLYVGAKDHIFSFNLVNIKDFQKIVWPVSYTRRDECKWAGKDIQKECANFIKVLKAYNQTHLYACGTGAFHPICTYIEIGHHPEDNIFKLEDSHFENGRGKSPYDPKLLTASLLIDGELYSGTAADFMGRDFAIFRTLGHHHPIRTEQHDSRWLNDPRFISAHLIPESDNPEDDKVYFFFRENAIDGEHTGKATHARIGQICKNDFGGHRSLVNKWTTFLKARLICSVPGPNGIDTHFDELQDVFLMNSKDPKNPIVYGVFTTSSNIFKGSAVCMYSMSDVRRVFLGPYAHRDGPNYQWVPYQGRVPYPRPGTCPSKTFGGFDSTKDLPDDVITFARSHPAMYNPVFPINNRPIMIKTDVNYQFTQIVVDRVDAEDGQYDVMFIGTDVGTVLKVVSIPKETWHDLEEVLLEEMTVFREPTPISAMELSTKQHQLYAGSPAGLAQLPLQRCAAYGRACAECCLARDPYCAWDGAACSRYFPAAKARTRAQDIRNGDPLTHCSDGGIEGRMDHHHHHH

B1: TPP-23337 (antibody, human IgG4 S228P, lambda, V domains shown)
VH: EVQLLESGGGLVQPGGSLRLSCAASGFTFSSYAMSWVRQAPGKGLEWVSAIGYGGDTYYADSVKGRFTISRDNSKNTLYLQMNSLRAEDTAVYYCARRDDYTSRDAFDYWGQGTLVTVSS
VL: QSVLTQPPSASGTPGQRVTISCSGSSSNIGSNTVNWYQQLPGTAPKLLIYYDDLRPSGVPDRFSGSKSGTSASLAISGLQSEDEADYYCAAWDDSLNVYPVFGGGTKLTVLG
B2: TPP-15370 (antibody, human IgG1, lambda, V domains shown)
VH: B1 VH with A33G, S35H, Y53T, K64M, Y109V
VL: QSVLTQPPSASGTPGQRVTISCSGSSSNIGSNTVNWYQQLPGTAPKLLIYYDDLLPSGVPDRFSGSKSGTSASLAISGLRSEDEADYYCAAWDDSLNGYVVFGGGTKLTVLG
notes: human IgG1; also called IgG1, hit from panning; parental mAb
B3: TPP-23341 (antibody, human IgG4 S228P, lambda, V domains shown)
VH: B1 VH
VL: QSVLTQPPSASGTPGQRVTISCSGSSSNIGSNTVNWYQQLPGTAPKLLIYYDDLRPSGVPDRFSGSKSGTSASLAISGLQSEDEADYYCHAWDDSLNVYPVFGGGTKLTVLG
B4: TPP-23346 (antibody, human IgG4 S228P, lambda, V domains shown)
VH: B1 VH with S30Y, S35L, Y53T
VL: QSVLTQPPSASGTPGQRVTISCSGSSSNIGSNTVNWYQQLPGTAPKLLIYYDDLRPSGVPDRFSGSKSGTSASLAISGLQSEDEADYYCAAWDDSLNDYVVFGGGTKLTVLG
B5: TPP-23334 (antibody, human IgG4 S228P, lambda, V domains shown)
VH: B1 VH
VL: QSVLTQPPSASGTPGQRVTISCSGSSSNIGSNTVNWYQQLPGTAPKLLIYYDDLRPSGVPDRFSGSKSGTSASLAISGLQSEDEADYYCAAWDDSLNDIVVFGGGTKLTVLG
B6: TPP-23373 (antibody, human IgG4 S228P, lambda, V domains shown)
VH: B1 VH with S30Y
VL: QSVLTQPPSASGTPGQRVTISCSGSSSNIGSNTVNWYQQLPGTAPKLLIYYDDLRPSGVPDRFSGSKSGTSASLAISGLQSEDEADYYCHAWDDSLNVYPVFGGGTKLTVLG
B7: TPP-23375 (antibody, human IgG4 S228P, lambda, V domains shown)
VH: B1 VH with S30Y
VL: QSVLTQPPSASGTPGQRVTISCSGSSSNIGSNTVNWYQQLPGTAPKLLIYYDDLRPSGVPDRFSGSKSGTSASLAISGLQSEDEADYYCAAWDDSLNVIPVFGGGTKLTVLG
B8: TPP-23345 (antibody, human IgG4 S228P, lambda, V domains shown)
VH: B1 VH
VL: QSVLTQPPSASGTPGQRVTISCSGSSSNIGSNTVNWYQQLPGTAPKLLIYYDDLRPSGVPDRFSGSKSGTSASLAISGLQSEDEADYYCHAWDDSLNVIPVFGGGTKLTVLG
B9: TPP-23374 (antibody, human IgG4 S228P, lambda, V domains shown)
VH: B1 VH with S30Y
VL: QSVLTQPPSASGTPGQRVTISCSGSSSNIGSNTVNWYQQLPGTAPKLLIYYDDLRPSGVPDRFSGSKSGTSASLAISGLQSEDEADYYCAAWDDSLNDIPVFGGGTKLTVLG
B10: TPP-23338 (antibody, human IgG4 S228P, lambda, V domains shown)
VH: B1 VH
VL: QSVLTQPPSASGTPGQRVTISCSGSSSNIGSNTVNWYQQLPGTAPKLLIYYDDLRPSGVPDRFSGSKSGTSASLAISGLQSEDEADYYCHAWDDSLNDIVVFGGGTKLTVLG
B11: TPP-23340 (antibody, human IgG4 S228P, lambda, V domains shown)
VH: B1 VH
VL: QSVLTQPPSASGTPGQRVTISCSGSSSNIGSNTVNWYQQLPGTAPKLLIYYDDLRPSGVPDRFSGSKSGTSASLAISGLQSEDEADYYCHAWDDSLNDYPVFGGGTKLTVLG
B12: TPP-23347 (antibody, human IgG4 S228P, lambda, V domains shown)
VH: B1 VH with S30Y, S35L, Y53T
VL: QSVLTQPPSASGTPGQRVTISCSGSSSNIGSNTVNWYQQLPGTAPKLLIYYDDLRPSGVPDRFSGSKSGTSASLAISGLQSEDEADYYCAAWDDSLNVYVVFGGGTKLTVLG
B13: TPP-30788 (antibody, human IgG1, kappa, V domains shown)
VH: EVQLVESGGGLVQPGGSLRLSCAASGFTFSSYYMSWVRQAPGKGLEWVSTIIKSGGYAYYPDSVKDRFTISRDNSKNTLYLQMSSLRAEDTAVYYCVRGGQGAMDYWGQGTTVTVSS
VL: EIVLTQSPATLSLSPGERATLSCRASQSIGDYLHWYQQKPGQAPRLLIKYASQSISGIPARFSGSGSGTDFTLTITSLEPEDFAVYYCQQGYSFPYTFGGGTKLEIKR
notes: prior art, WO 2020/225400; also called BI clone I; Böhringer (BI) Clone I
B14: TPP-30789 (antibody, human IgG1, kappa, V domains shown)
VH: B13 VH with T28P
VL: B13 VL
notes: prior art, WO 2020/225400; also called BI clone II; Böhringer (BI) Clone II
B15: TPP-30791 (antibody, human IgG1, kappa, V domains shown)
VH: B13 VH with V12L, P14L, Y80N, S84N, R98K
VL: B13 VL with T76S
notes: prior art, WO 2020/225400; also called BI clone IV; Böhringer (BI) Clone IV
B16: TPP-30790 (antibody, human IgG1, kappa, V domains shown)
VH: B13 VH with P14L, S84N, R98K
VL: B13 VL with K49Y, T76S
notes: prior art, WO 2020/225400; also called BI clone III; Böhringer (BI) Clone III
B17: TPP-11489 (antibody, human IgG1, lambda)
heavy: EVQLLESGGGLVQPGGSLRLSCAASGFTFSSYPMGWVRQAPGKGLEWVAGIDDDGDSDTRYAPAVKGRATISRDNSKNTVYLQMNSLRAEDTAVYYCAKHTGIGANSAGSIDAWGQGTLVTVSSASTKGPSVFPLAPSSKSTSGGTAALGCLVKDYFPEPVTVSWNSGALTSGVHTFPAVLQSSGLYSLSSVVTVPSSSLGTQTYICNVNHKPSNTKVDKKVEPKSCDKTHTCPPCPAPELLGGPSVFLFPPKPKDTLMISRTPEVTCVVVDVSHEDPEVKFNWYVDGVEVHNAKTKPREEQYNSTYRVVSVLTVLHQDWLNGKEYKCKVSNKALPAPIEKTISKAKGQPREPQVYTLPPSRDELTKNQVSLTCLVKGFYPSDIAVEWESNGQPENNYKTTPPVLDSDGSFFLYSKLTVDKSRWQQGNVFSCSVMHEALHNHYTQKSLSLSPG
light: SYELTQPPSVSVSPGQTARITCSGGGSYTGSYYYGWYQQKPGQAPVTVIYYNNKRPSDIPERFSGSLSGTTNTLTISGVQAEDEADYYCGSADNSGDAFGTGTKVTVLGQPKAAPSVTLFPPSSEELQANKATLVCLISDFYPGAVTVAWKADSSPVKAGVETTTPSKQSNNKYAASSYLSLTPEQWKSHRSYSCQVTHEGSTVEKTVAPTECS
notes: human IgG1; also called Chiome; Chiome Prior Art (hIgG1)
B18: TPP-15374 (antibody, human IgG1, lambda, V domains shown)
VH: EVQLLESGGGLVQPGGSLRLSCAASGFTFSSYEMNWVRQAPGKGLEWVSGISWNSGSIGYADSVKGRFTISRDNSKNTLYLQMNSLRAEDTAVYYCARSGYSSSWFDPDFDYWGQGTLVTVSS
VL: QSVLTQPPSASGTPGQRVTISCTGSSSNIGAGYDVHWYQQLPGTAPKLLIYGNSNRPSGVPDRFSGSKSGTSASLAISGLRSEDEADYYCSSYAGSNPYVVFGGGTKLTVLG
notes: as for B2

target: T3, Human Semaphorin3A-Fc (R&D Systems), TPP-13211 (human); experiment: competition ELISA on coated TPP-13211, competitor biotinylated TPP-15370
T3 construct: R&D Systems 1250-S3; also called recombinant human Sema3A-Fc chimera
T3 sequence (chain, as listed by the source limits assumed): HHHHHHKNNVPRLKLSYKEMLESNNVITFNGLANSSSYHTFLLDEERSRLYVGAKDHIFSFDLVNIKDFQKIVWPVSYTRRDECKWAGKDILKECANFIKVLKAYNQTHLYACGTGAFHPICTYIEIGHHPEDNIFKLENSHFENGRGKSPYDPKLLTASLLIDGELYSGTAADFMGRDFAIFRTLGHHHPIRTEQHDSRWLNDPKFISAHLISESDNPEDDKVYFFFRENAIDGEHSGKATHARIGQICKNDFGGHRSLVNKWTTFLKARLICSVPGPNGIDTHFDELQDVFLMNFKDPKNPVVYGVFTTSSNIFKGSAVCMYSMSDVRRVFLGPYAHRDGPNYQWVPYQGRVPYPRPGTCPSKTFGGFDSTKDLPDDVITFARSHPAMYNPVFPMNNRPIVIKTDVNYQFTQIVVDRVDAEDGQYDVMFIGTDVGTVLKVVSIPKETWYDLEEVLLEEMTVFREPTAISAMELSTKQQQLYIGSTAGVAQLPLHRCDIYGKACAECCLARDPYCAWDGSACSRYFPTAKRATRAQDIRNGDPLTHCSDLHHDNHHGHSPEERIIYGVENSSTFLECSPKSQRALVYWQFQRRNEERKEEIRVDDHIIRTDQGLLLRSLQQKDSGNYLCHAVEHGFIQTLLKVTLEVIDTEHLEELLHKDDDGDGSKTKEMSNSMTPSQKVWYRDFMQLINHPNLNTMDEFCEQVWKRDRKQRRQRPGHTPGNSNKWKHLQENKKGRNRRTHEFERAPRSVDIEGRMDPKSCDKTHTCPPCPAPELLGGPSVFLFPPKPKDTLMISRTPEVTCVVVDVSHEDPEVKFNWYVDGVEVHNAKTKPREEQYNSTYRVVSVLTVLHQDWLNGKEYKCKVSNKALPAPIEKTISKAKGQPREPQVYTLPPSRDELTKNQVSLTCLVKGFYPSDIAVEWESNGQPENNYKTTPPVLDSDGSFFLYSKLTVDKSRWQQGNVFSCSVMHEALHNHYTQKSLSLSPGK
Procedure: For screening in a competition ELISA setup, human Sema3a (TPP-13211) was coated onto 384-well plates (Greiner bio-one, 781077) with a concentration of 0.5 μg/ml in coating buffer (Carbonate-Basis pH 9.6, Candor 121125) over night at 10° C. After washing the plates 3 times with 50 μl PBS 0.05% Tween the plates were blocked with 50 μl Smart Block® (Candor 113500) for 1 h at 20° C. and washed again 3 times as described.
Subsequently, 20 μl of pre-mixed antibody solution was added to the plates and incubate for 18 h at 10° C. […] The total concentration of the added antibody solution was 0.25 μg/ml. During the incubation time the antibodies bound to the plates in a competitive manner as they compete for the same epitope on the human Sema3A protein.
After subsequent washing with 50 μl PBS 0.05% Tween for 3 times, 20 μl of a Streptavidin-HRP solution (R&D Systems, DY998, 1:200 in PBS 0.05% Tween 10% Smart Block) were added and incubated for 1 h and 20° C. followed by subsequent washing 3 times with 50 μl PBS 0.05% Tween and addition of 20 μl Amplex Red solution (Invitrogen A12222, 1:1000 in NaP-buffer 50 mM pH7.6 with 1:10000 of 30% H2O2). After a final incubation for 20 min at 20° C. the signal was determined using an emission wavelength of 595 nm and excitation of 530 nm.

VAL norm to TPP-9809 (1 to 1 ratio) | VAL norm to TPP-9809 (1 to 5 ratio) | Binder
0.27 | 0.14 | B1
0.67 | 0.54 | B2
0.38 | 0.18 | B3
0.22 | 0.13 | B4
0.28 | 0.11 | B5
0.35 | 0.2 | B6
0.3 | 0.16 | B7
0.27 | 0.08 | B8
0.19 | 0.08 | B9
0.33 |  | B10
0.4 |  | B11
0.3 | 0.16 | B12

target: T1, human wild-type Sema3A of SEQ ID NO: …; experiment: cell-based or functional assay

EC50 (pM), HUVEC repulsion assay, second experiment | Binder
104 pM | B13
165 pM | B14
221 pM | B15
121 pM | B16
> 20000 pM | B17

Target: T2, Dog Semaphorin3A-Sema Domain, TPP-19121
Experiment: SPR, captured antibody, Sema3A domain analyte
Procedure: To assess the binding activity of anti-Sema3A antibodies binding assays were conducted using surface plasmon resonance (SPR). Binding assays were performed on a Biacore T200 instrument (Cytiva) at 25° C. using assay buffer HBS P+, 300 mM NaCl, 0.75 mM CaCl₂, 2.5 mM MgCl₂, 1 mg/ml BSA, 0.05% NaN₃. Antibodies were captured via anti-human Fc IgGs (“Human antibody capture kit”, Order No. BR100839, Cytiva) covalently amine coupled to a Series S CM5 sensor chip (Cytiva). The amine coupling was carried out according to the manufacturer's instructions using 1-ethyl-3-(3-dimethylaminopropyl) carbodiimide hydrochloride (EDC), N-hydroxysuccinimide (NHS) and ethanolamine HCl, pH 8.5 (“Amine Coupling Kit” BR-1000-50, Cytiva.). Human, mouse, cynomolgus, rat, dog and pig monovalent Sema3A domain were used as analytes in a concentration series from 0.024-3.125 nM in multi cycle kinetics mode. The sensor surface was regenerated with glycine pH 2.0 after each antigen injection. Obtained sensorgrams were double referenced (subtraction of reference flow cell signal and buffer injection) and were fitted to a 1:1 Langmuir binding model using the Biacore T200 Evaluation software obtaining the experimental fitted RMax value. To calculate the binding activity first the theoretical RMax needs to be calculated according to equation 1: […]
Binding activity was determined by dividing the experimental determined RMax by the theoretical calculated RMax according to equation 2: […]

Binding Activity [%] | Binder
98% | B18
106% | B13
102% | B14
106% | B15
92% | B16
22% | B17
114% | B2

target: T3, Human Semaphorin3A-Fc (R&D Systems), …; experiment: cell-based or functional assay

EC50 (nM), GCC assay | Binder
8.13 nM | B18
2.12 nM | B1
4.33 nM | B2
2.24 nM | B5
2.19 nM | B9

target: T3, Human Semaphorin3A-Fc (R&D Systems), …; experiment: ELISA, coated Sema3A-Fc, antibody 0.00015-10 ug/ml
Procedure: For the assessment of binding selectivity to Sema3A vs Sema3G, 1 nM recombinant human Sema3A-Fc chimera (R&D Systems) or recombinant human GST—Sema3G (Abnova) were coated on Maxisorb plates, incubated with antibodies in a dose-response curve from 0.00015-10 μg/ml, and the binding of antibodies quantified using HRP coupled anti-human antiserum and chemiluminescent substrate.

EC50 | Binder
0.15 nM | B13
0.1 nM | B14
0.08 nM | B15
0.08 nM | B16
15.5 nM | B1
21.3 nM | B3
9.2 nM | B5
17.6 nM | B6
7.7 nM | B7
6.1 nM | B9
9.6 nM | B10
12.3 nM | B11
8.4 nM | B12
